This note sets out measurements from the Human Domainome abundance scans (Beltran et al. 2025).

To fix the notation:
B1: Zinc finger MYM-type protein 3, residues 589 to 668; numbered along this chain, Q14202 (parent)
chain: LSCHYCHSLFSGKPEVLDWQDQVFQFCCRDCCEDFKRLRGVVSQCEHCRQEKLLHEKLRFSGVEKSFCSEGCVLLYKQDF

± gives the uncertainty stated by the source.

This data set covers variants of B1. The data set is described as follows: abundance fitness (aPCA) (normalised: wild type 0, dead -1); higher = more abundant; growth selection in yeast, the domain comes from the species named. As to conditions: Homo sapiens.
For L54T, the abundance fitness was -0.226 ± 0.45. Consider L54H, for which the abundance fitness is -0.503 ± 0.41. Take L54V: the abundance fitness is -0.046 ± 0.091. Regarding L54I, the abundance fitness came to 0.201 ± 0.23. On to V41G, for which the abundance fitness amounted to 0.056 ± 0.098. For V41T, the abundance fitness is -0.243 ± 0.41. Take V41A: the abundance fitness was -0.208 ± 0.41. On to V63P, for which the abundance fitness is -0.198 ± 0.33.

V63E: the abundance fitness turned out to be 0.175 ± 0.11. Under V63S stands -0.255 ± 0.2. On to V63L, for which the abundance fitness was -0.074 ± 0.18. Take E33T: the abundance fitness was -0.093 ± 0.058. Under E33V stands -0.081 ± 0.042; under E33P, -0.811 ± 0.091; under E33L, -0.171 ± 0.042. Under E33A stands -0.037 ± 0.04. For the variant E33F, the abundance fitness is -0.103 ± 0.11. Turning to Q20H, the abundance fitness was -0.021 ± 0.15. On to Q20L, for which the abundance fitness was determined as 0.08 ± 0.06. Take Q20D: the abundance fitness came to 0.456 ± 0.054. Regarding Q20V, the abundance fitness is 0.032 ± 0.049.

As for C28Q, the abundance fitness was found to be 0.087 ± 0.046. Then C28E, with -0.228 ± 0.063; and C28M, with 0.129 ± 0.046. Consider C28L, for which the abundance fitness was -0.758 ± 0.059.

As to C28F, the abundance fitness is -0.83 ± 0.12.

In the case of C28I, the abundance fitness is -0.703 ± 0.13. On to C28H, for which the abundance fitness is -0.081 ± 0.11.

On to C28N, for which the abundance fitness was -0.16 ± 0.12. On to C28G, for which the abundance fitness was found to be 0.08 ± 0.038. Consider Y76Q, for which the abundance fitness is -0.179 ± 0.15. With Y76V, the abundance fitness is -0.317 ± 0.14. Regarding Y76G, the abundance fitness is -0.28 ± 0.098. With Y76L, the abundance fitness is -0.663 ± 0.24.

Take Y76H: the abundance fitness is 0.329 ± 0.24. For D18I, the abundance fitness is -0.039 ± 0.071.

As for D18K, the abundance fitness was -0.028 ± 0.069.

For the variant D18L, the abundance fitness is 0.036 ± 0.042.

As to D18E, the abundance fitness was -0.06 ± 0.054. On to D18M, for which the abundance fitness was 0.175 ± 0.051. For the variant F10A, the abundance fitness was -0.316 ± 0.048. Turning to F10Y, the abundance fitness is -0.191 ± 0.093. Then F10G, with -0.408 ± 0.046; and V73R, with 0.149 ± 0.082; and V73A, with 0.236 ± 0.086.

For the variant R49S, the abundance fitness turned out to be 0.283 ± 0.14. On to R49E, for which the abundance fitness is -0.361 ± 0.18. In the case of F35G, the abundance fitness is -0.317 ± 0.042. Then F35T, with -0.607 ± 0.077; and F35D, with -0.549 ± 0.092; and F35V, with -0.587 ± 0.048. Then F35Y, with -0.177 ± 0.1; and F35I, with -0.624 ± 0.084. Then E64T, with -0.238 ± 0.31; and E64H, with -0.355 ± 0.34; and E64Q, with -0.363 ± 0.18. For the variant E64R, the abundance fitness is -0.692 ± 0.16. In the case of E64M, the abundance fitness is -0.316 ± 0.18. Under E64D stands 0.047 ± 0.31; under E46M, -0.631 ± 0.27. E46P: the abundance fitness is 0.996 ± 0.28. As for E46C, the abundance fitness amounted to 0.271 ± 0.2. Regarding E46W, the abundance fitness was -0.245 ± 0.14. Under E46S stands 0.385 ± 0.11; under E46K, 0.233 ± 0.26; under E46A, 0.932 ± 0.072. As for K13E, the abundance fitness is -0.001 ± 0.052. With K13L, the abundance fitness is -0.048 ± 0.048. Under K13C stands -0.117 ± 0.12; under K13M, -0.444 ± 0.15; under K13R, 0.05 ± 0.046.

As for Q44V, the abundance fitness was 0.767 ± 0.072. Regarding Q44P, the abundance fitness worked out at 0.818 ± 0.099. For Q44K, the abundance fitness was 1.04 ± 0.083. Regarding Q44M, the abundance fitness was 0.576 ± 0.14. Then C68M, with -0.505 ± 0.32; and C68A, with -0.93 ± 0.23. Regarding C68S, the abundance fitness is -0.619 ± 0.21.

As to C68R, the abundance fitness is -0.892 ± 0.28.

K77G: the abundance fitness was -0.404 ± 0.12. Take K77R: the abundance fitness was -0.455 ± 0.14. Then K77F, with -0.394 ± 0.39; and C27F, with -0.607 ± 0.17; and C27M, with -0.472 ± 0.07. Then C27E, with -0.721 ± 0.062; and C27P, with -0.483 ± 0.062. For K57V, the abundance fitness is -0.192 ± 0.12. As to K57T, the abundance fitness stood at 0.05 ± 0.2. Under R39L stands -0.282 ± 0.32. Then R39Q, with 0.288 ± 0.14. With R39C, the abundance fitness is 0.272 ± 0.21. In the case of Q25W, the abundance fitness was determined as 0.033 ± 0.046. Under Q25H stands 0.122 ± 0.064; under Q25I, -0.084 ± 0.067; under Q25S, 0.016 ± 0.044.

For Q25M, the abundance fitness is 0.198 ± 0.059.

Consider Q25E, for which the abundance fitness worked out at 0.226 ± 0.043. As to Q25V, the abundance fitness is 0.032 ± 0.041. As to Q50E, the abundance fitness was -0.242 ± 0.11. As for Q50W, the abundance fitness was -0.582 ± 0.19. As to Q50M, the abundance fitness amounted to 0.172 ± 0.5. Regarding Q50P, the abundance fitness is -0.48 ± 0.24. With Q50Y, the abundance fitness is -0.312 ± 0.21. On to S69Q, for which the abundance fitness was -0.638 ± 0.42.

With S69G, the abundance fitness was -0.64 ± 0.1. Under S69W stands -0.623 ± 0.26; under S69K, -0.282 ± 0.26; under S69I, -0.15 ± 0.36.

As for V42G, the abundance fitness is -0.265 ± 0.095. Regarding F67L, the abundance fitness was -0.852 ± 0.21.

On to F67N, for which the abundance fitness is -0.231 ± 0.33.

On to F67A, for which the abundance fitness is -0.47 ± 0.18. Then F67Q, with -0.338 ± 0.14.

Take F67P: the abundance fitness was -0.47 ± 0.19. As to F67M, the abundance fitness was -0.567 ± 0.29. With K52A, the abundance fitness was -0.244 ± 0.14. As to K52C, the abundance fitness stood at 0.546 ± 0.21. Then K52E, with -0.785 ± 0.23; and K36S, with -0.048 ± 0.042. For the variant K36R, the abundance fitness is -0.077 ± 0.038.

For the variant K36M, the abundance fitness was determined as 0.229 ± 0.044. For the variant K36I, the abundance fitness is -0.313 ± 0.1. For the variant K36C, the abundance fitness was -0.294 ± 0.06. Regarding L9C, the abundance fitness was -0.184 ± 0.066. Regarding L9G, the abundance fitness came to 0.121 ± 0.038. As for G71L, the abundance fitness is -0.105 ± 0.1. As for Q22I, the abundance fitness was -0.068 ± 0.11.

Regarding Q22P, the abundance fitness is -0.071 ± 0.05. For the variant Q22Y, the abundance fitness is 0.101 ± 0.061. For the variant Q22A, the abundance fitness was determined as 0.26 ± 0.04. For Q22R, the abundance fitness came to 0.165 ± 0.038. Consider G12A, for which the abundance fitness stood at 0.013 ± 0.039. As for G12K, the abundance fitness is -0.02 ± 0.05. Take G12P: the abundance fitness is -0.227 ± 0.05. With G12S, the abundance fitness was -0.038 ± 0.043. G12H: the abundance fitness was -0.15 ± 0.069. G12W: the abundance fitness is -0.27 ± 0.046. As to G12V, the abundance fitness was -0.267 ± 0.043. As to G12Y, the abundance fitness was -0.75 ± 0.15.

As to G12L, the abundance fitness is -0.261 ± 0.046.

In the case of C3N, the abundance fitness is -1.11 ± 0.23. Under C3V stands -0.871 ± 0.074. Then C3Q, with -0.998 ± 0.1; and C3L, with -0.896 ± 0.065; and C3Y, with -0.984 ± 0.18. As to C3E, the abundance fitness is -0.823 ± 0.078. C3R: the abundance fitness is -0.949 ± 0.063. Regarding C3D, the abundance fitness is -1.04 ± 0.13. Regarding C3F, the abundance fitness is -0.63 ± 0.11.

C3T: the abundance fitness is -0.936 ± 0.085.

Regarding H55G, the abundance fitness is -0.126 ± 0.096. On to H55Y, for which the abundance fitness worked out at 0.223 ± 0.38. Take H55C: the abundance fitness was -0.053 ± 0.14.

Regarding H55P, the abundance fitness came out at 0.106 ± 0.19. In the case of H55W, the abundance fitness is -0.334 ± 0.17. With H55A, the abundance fitness is -0.286 ± 0.14. Consider D79R, for which the abundance fitness stood at 0.351 ± 0.11. Turning to D79A, the abundance fitness is 0.089 ± 0.12. As for D79T, the abundance fitness was -0.07 ± 0.14. For the variant D79V, the abundance fitness was -0.531 ± 0.23. Under D79L stands 0.034 ± 0.13; under W19T, 0.326 ± 0.051; under W19H, 0.137 ± 0.16. Regarding W19G, the abundance fitness was found to be 0.105 ± 0.04.

Take W19K: the abundance fitness was determined as 0.183 ± 0.048. Then W19D, with -0.035 ± 0.16; and W19S, with 0.365 ± 0.042.
